Results from paper PMC10042821, “Cryo-EM structure of human eIF5A-DHS complex reveals the molecular basis of hypusination-associated neurodegenerative disorders” (Nature Communications, 2023).
Residue numbers refer to the chain shown, from its start. Each block holds one binder with its values, some of them ahead of it.

Columns and labels:
Conditions in all cases: both partners purified
[1] = target: T1, deoxyhypusine synthase, wild type, His-tagged (human, UniProt P49366 1-369); test: MST; Monolith NT.115; 8.32 nM His-tagged DHS labelled with RED-tris-NTA, eIF5A titrated 0.00175-57.5 uM; 50 mM Tris, 200 mM NaCl, 5 mM beta-ME pH 8; free buffer
T1 construct: deoxyhypusine synthase (DHS), Homo sapiens, UniProt P49366, residues 1-369; N-terminal 6xHis-tag followed by a TEV site (pET24d); tag kept for the His-tag labelling in MST; also called DHS; DHS^wt; source: E. coli, purified; His-tagged protein labelled with RED-tris-NTA for MST; not shown: His6, N-terminal, kept
T1 sequence (looked up): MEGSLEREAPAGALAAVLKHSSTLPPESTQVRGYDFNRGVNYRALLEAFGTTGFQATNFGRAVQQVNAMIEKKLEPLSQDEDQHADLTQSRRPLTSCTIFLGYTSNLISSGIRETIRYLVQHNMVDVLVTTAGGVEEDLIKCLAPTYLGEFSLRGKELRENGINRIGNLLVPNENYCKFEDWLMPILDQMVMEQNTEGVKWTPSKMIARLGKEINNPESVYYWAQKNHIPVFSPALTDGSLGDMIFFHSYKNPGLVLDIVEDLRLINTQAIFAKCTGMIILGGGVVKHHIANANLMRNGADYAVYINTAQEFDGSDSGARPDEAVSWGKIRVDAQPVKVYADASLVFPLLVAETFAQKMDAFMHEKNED

[2] = target: T2, deoxyhypusine synthase delY305_I306, patient-derived variant, His-tagged (human, UniProt P49366 1-369, delY305_I306); test: as above
T2 construct: deoxyhypusine synthase (DHS), Homo sapiens, UniProt P49366, residues 1-369, pathological variant lacking Y305 and I306; Primarily dimeric by mass photometry; also called DHS^delY305_I306; DHS^del305Y_306I; source: E. coli, purified from the soluble fraction; His-tagged protein labelled with RED-tris-NTA for MST; not shown: His6, N-terminal, kept
T2 sequence (looked up): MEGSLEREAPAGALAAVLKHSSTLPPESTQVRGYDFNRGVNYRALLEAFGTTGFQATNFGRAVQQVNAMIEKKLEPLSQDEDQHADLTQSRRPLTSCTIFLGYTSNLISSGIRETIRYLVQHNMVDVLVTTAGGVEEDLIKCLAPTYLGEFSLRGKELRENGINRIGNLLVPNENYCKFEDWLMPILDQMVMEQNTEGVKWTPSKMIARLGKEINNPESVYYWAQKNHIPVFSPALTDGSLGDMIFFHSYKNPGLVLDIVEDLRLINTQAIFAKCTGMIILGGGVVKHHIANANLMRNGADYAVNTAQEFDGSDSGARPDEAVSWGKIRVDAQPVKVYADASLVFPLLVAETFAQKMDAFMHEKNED

[3] = target: T3, deoxyhypusine synthase W327A, His-tagged (human, UniProt P49366 1-369, W327A); test: as above
T3 construct: deoxyhypusine synthase (DHS), Homo sapiens, UniProt P49366, residues 1-369; source: E. coli, purified; His-tagged protein labelled with RED-tris-NTA for MST; not shown: His6, N-terminal, kept
T3 sequence (looked up): T1 sequence (looked up) with W327A

[4] = target: T4, deoxyhypusine synthase, wild type, His-tagged (human, UniProt P49366 1-369, RED-tris-NTA 2nd Generation dye on the His tag); test: MST; His-tagged DHS variants labelled with RED-tris-NTA 2nd Generation, 8.32 nM; eIF5A titrated, sixteen dilutions 0.00175–57.5 μM; 50 mM Tris, 200 mM NaCl, 5 mM β-ME pH 8; Monolith NT.115, 40% excitation power, 60% MST power; no NAD or SPD
T4 construct: human deoxyhypusine synthase, Uniprot P49366, residues 1-369, in pET24d with N-terminal 6xHis-tag and TEV site; also called DHS; DHS wt; source: E. coli, purified; not shown: 6xHis, N-terminal, kept
T4 sequence (looked up): T1 sequence (looked up)

[5] = target: T5, deoxyhypusine synthase Q83A, His-tagged (human, UniProt P49366 1-369, Q83A, RED-tris-NTA 2nd Generation dye on the His tag); test: as above
T5 construct: human deoxyhypusine synthase, Uniprot P49366, residues 1-369, site-directed mutant of the pET24d full-length construct; also called DHS Q83A; source: E. coli, purified; not shown: 6xHis, N-terminal, kept
T5 sequence (looked up): T1 sequence (looked up) with Q83A

Kd [1]: 0.0338 ± 0.0085 µM | Kd [2]: 0.08 ± 0.0234 µM | Kd [3]: 0.603 ± 0.284 µM
B1: eukaryotic translation factor 5A-1 (eIF5A-1), residues 15-151 (domain or fragment)
chain: not shown
notes: eIF5A1 (eukaryotic translation factor 5A-1), human, residues 15-151, from pET28-MHL (Addgene); The general purification removes the His tag with TEV; A His-tagged eIF5A1 was used only in the hypusination assay; source: E. coli, purified (HisTrap, TEV cleavage, reverse HisTrap, SEC); not shown: His tag, N-terminal, cleaved

Kd [4]: 0.04 ± 0.009 µM | Kd [5]: > 5 µM
B2: eukaryotic translation factor 5A (eIF5A-1), residues 15-151 (domain or fragment)
chain: not shown
notes: human eIF5A1, residues 15-151, from pET28-MHL (Addgene); The purification protocol removes the tag with TEV; source: E. coli, purified (HisTrap, TEV cleavage, reverse HisTrap, SEC); not shown: His tag, N-terminal, cleaved
